The results in this text go back to US20230406948A1.

Test [1] has as its target human CD40 on cells (native CD40 on Ramos cells, human B cells, human monocyte-derived dendritic cells; cell surface CD40) (human) (UniProt P25942). The test is described as follows: cell-based or functional assay.
Test [2] shares this target. The test is described as follows: FACS on live Ramos cells, goat anti-human IgG (H+L) PE.

Chain of human CD40 on cells (native CD40 on Ramos cells, human B cells, human monocyte-derived dendritic cells; cell surface CD40) (human) (P25942 21-193): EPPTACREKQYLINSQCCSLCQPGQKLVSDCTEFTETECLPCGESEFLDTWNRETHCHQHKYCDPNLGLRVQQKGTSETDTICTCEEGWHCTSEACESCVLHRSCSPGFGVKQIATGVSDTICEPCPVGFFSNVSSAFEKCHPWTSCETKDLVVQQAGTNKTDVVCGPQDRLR

In the case of SGN-40 (antibody), in test [1], the EC50 (ng/ml), CD40 agonist activity: up-regulation of CD86 on human B cells is 1260 ng/mL. Further, the EC50 – broadly, the concentration that produces a half-maximal response – in test [2] is 0.0218 µg/mL.
